One data set concerns AIM-/- mice. Description: Intraperitoneal rAIM in AIM-/- mice given HFD. It is filed as in vivo, mouse. As to the method:
While giving HFD to AIM^−/− mice for 15 weeks, mouse rAIM was intraperitoneally injected into the AIM^−/− mice for the last 9 weeks to examine whether the administration of rAIM inhibits the increase of the adipose tissue mass. That is, rAIM was intraperitoneally injected three times a week into the AIM^−/− mice ((150 μg/injection/mouse)×(three times/week)=(450 μg/mouse/week)) over the last 9 weeks, and the body weight, the weight of the visceral fat, and the weight of the subcutaneous fat were measured in the 15th week. The body weight, the weight of the visceral fat, and the weight of the subcutaneous fat were also measured in the AIM^−/− mice as the control to which BSA (bovine serum albumin) had been intraperitoneally administered in the same administration schedule.
FIG. 30A, FIG. 30B, and FIG. 30C show the results (n=3) of measuring the body weight (Body) (g), the weight of the visceral adipose tissue (Visceral fat) (g), and the amount of the subcutaneous adipose tissue (Subcutaneous fat) (g) in the AIM/mice to which BSA was administered (BSA) and the AIM^−/− mice to which rAIM was administered (rAIM), respectively.
Further, mRNA levels of FSP27, perilipin, and adipophilin were evaluated in each of the AIM^−/− mice to which BSA was administered and the AIM^−/− mice to which rAIM was administered. The mRNA levels were measured using RNA isolated from epididymal fat and using QPCR.
FIG. 31 illustrates the mRNA levels (n=3) of FSP27, perilipin, and adipophilin evaluated in each of the AIM^−/− mice to which BSA was administered (BSA) and the AIM^−/− mice to which rAIM was administered (rAIM). It should be noted that values illustrated in FIG. 31 were normalized to GAPDH and represented as expressions relative to the results in the mice to which BSA had been injected.

For data set [1], the target named is T1, CD36 (Mus musculus, UniProt Q08857).
T1 construct: endogenous in cells; host or cells: differentiated 3T3-L1 adipocytes
The experiment in a line: Incorporation of intravenously injected rAIM into adipose tissue of CD36-/- and CD36+/+ mice. Conditions: mouse rAIM 300 μg/mouse intravenous, 16 hours, epididymal adipose tissue. Type of data set: in vivo. As to the method: Mouse rAIM was intravenously injected into each of a CD36^−/− mouse which was deficient for CD36 and a wild-type CD36^+/+ mouse, and the incorporation of rAIM into the adipose tissues was analyzed. That is, an injection prepared by dissolving rAIM in PBS was intravenously injected into each of the CD36^−/− mouse and the CD36^+/+ mouse (300 μg/mouse). At 16 hours after the injection, the mice were sacrificed, and tissue sections were made from their epididymal adipose tissue. Then, the tissue sections were stained with an anti-AIM antibody.

Data set [2] deals with adipocytes in the adipose tissue of AIM-/- mice. Description: Endocytosis of injected rAIM into adipose tissue of AIM-/- mice (histology). It is filed as in vivo, mouse. Conditions: 3 hours. As to the method:
Further, mouse rAIM was directly injected into epididymal adipose tissue in obese AIM^−/− mice, and the adipose tissue was histologically analyzed. That is, total 100 μg of rAIM was directly injected into several sites of the epididymal adipose tissue. At 3 hours after the injection, tissue sections from the epididymal adipose tissue were made, and the tissue sections were stained with the anti-AIM antibody and the anti-macrophage antibody.
In addition, rAIM was systemically administered by intravenous injection to AIM^−/− mice, and subsequently adipose tissues were histologically analyzed. That is, 200 μg of rAIM was systemically administered by the intravenous injection to the AIM^−/− mice. At 3 hours after the injection, tissue sections were made from the epididymal adipose tissue, and the tissue sections were stained with the anti-AIM antibody and the anti-macrophage antibody.

Data set [3] addresses T1, CD36. Description: Internalization of AIM into 3T3-L1 adipocytes with or without CD36 neutralizing antibody. Type of data set: cell-based. As to the method: Further, in order to confirm that AIM is internalized via CD36, a neutralizing antibody which inhibited the binding of a ligand to CD36 was simultaneously loaded when the 3T3-L1 adipocyte differentiated by the above-mentioned differentiation induction was loaded with AIM. Subsequently, the cultured 3T3-L1 adipocytes were collected, and stained using an anti-AIM antibody. The 3T3-L1 adipocytes loaded with AIM alone without loading the neutralizing antibody against CD36 were cultured and stained in the same manner as described above.

The next data set deals with obese AIM-/- mice. Description: Intravenous administration of AIM to obese AIM-/- mice. Type of data set: in vivo, mouse. As to the method: Obese AIM^−/− mice were produced by giving HFD for 20 weeks or more. Meanwhile, a purified recombinant mouse AIM protein was prepared, and an AIM solution in which the AIM protein had been dissolved at a concentration of 0.2 mg/mL in phosphate buffered saline (PBS, pH 7.4) was prepared as an injection. Then, the AIM injection was administered to the mice from the tail vein twice a week for 4 weeks.
A dosage was 1 μg per 1 g of the body weight of the mouse. The dosage was determined based on the AIM concentration in the culture medium in the above-mentioned in vitro experiments, by considering that the AIM concentration in the blood of the mouse was a similar level to the AIM concentration in the culture medium.
In addition, as a control, the same amount of bovine serum albumin (BSA) was administered via the tail vein in the same schedule to the obese AIM^−/− mice produced by giving HFD for 20 weeks or more. Then, the body weight of the mice after being administered was measured, and the visceral white adipose tissue was collected and its weight was measured.
FIG. 22A and FIG. 22B show the results of observing adipose tissue sections stained with hematoxylin and eosin (HE) under a microscope.

Data set [4] in a line: Stability of AIM functions (drying and redissolution, acidic condition). Type of data set: physicochemical.
Another data set has as its system 3T3-L1 cells. The experiment in a line: Endocytosis of AIM into differentiated 3T3-L1 cells (confocal and immunoelectron microscopy). It is filed as cell-based, mouse. As to the method:
Subsequently, the cells were collected, and intracellularly stained using an anti-AIM antibody. Further, nuclei in the cells were stained using DAPI.
FIG. 16A and FIG. 16B show immunoelectron micrographs of the cells cultured for 3 hours (3 hr) and 12 hours (overnight) after being loaded with AIM, respectively.

Where [5] appears, read: epididymal fat, QPCR, rAIM ip versus BSA.
The mark [6] stands for this setting: mouse rAIM ip 150 μg/injection/mouse, three times/week, last 9 of 15 weeks HFD, versus BSA.
The mark [7] stands for this setting: AIM iv versus albumin, HE-stained sections.
[8] abbreviates: mouse AIM 1 μg per 1 g body weight, tail vein, twice a week for 4 weeks, versus BSA.

T1 sequence (Q08857 whole entry): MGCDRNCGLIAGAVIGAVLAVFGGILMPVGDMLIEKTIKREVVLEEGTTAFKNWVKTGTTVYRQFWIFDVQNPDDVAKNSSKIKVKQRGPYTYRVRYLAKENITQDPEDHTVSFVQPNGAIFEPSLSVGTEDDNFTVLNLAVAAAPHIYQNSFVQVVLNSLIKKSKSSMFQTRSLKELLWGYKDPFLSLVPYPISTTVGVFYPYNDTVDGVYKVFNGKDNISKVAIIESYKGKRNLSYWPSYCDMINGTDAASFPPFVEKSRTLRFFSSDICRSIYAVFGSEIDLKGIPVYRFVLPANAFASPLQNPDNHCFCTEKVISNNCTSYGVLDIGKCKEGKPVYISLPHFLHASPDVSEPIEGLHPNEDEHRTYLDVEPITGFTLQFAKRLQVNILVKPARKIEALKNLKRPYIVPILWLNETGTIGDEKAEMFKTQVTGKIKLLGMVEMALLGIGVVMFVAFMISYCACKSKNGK

B1: mouse AIM: protein consisting of the amino acid sequence shown in SEQ ID NO: 5; recombinant, purified from HEK293T culture supernatant (protein)
chain: MAPLFNLMLAILSIFVGSCFSESPTKVQLVGGAHRCEGRVEVEHNGQWGTVCDDGWDRRDVAVVCRELNCGAVIQTPRGASYQPPASEQRVLIQGVDCNGTEDTLAQCELNYYVFDCSHEEDAGAQCENPDSDLLFIPEDVRLVDGPGHCQGRVEVLHQSQWSTVCKAGWNLQVSKVVCRQLGCGRALLTYGSCNKNTQGKGPIWMGKMSCSGQEANLRSCLLSRLENNCTHGEDTWMECEDPFELKLVGGDTPCSGRLEVLHKGSWGSVCDDNWGEKEDQVVCKQLGCGKSLHPSPKTRKIYGPGAGRIWLDDVNCSGKEQSLEFCRHRLWGYHDCTHKEDVEVICTDFDV
modifications: mouse
notes: recombinant, purified from HEK293T culture supernatant
As to B1, in the data set on AIM-/- mice (setting [5]), the “mRNA level of FSP27” value was “low”, the “mRNA level of adipophilin” value is recorded as “low” and the “mRNA level of perilipin” value is given as “low”. In the data set on AIM-/- mice (setting [6]), the body weight gain entry was “remarkably small”, the “increase in weight of the subcutaneous fat” value is given as “remarkably small” and the “increase in weight of the visceral fat” value is on record as “remarkably small”. Also, the “amount of rAIM internalized into the adipocytes, CD36-/- mouse compared with CD36+/+ mouse” value in the data set with CD36 [1] is listed as “remarkably smaller”. For the same molecule, in data set [2] (200 μg rAIM intravenous injection), the “staining of macrophages in the adipose tissues with the anti-AIM antibody” value is reported as “also stained”. Moreover, the “signals from the endocytosed rAIM in the adipocytes in the adipose tissues” value in data set [2] (200 μg rAIM intravenous injection, levels lower than after direct injection) was “detected”. Further, the “endocytosis of exogenous rAIM into adipocytes in the adipose tissue” value in data set [2] (total 100 μg mouse rAIM directly injected into epididymal adipose tissue of obese AIM-/- mice) is “endocytosed into adipocytes”.

B2: AIM: apoptosis inhibitor of macrophage, secretory protein with three SRCR domains; recombinant mouse and human AIM in Example 2, mouse AIM in Examples 3-16 (protein)
chain: ESPTKVQLVGGAHRCEGRVEVEHNGQWGTVCDDGWDRRDVAVVCRELNCGAVIQTPRGASYQPPASEQRVLIQGVDCNGTEDTLAQCELNYYVFDCSHEEDAGAQCENPDSDLLFIPEDVRLVDGPGHCQGRVEVLHQSQWSTVCKAGWNLQVSKVVCRQLGCGRALLTYGSCNKNTQGKGPIWMGKMSCSGQEANLRSCLLSRLENNCTHGEDTWMECEDPFELKLVGGDTPCSGRLEVLHKGSWGSVCDDNWGEKEDQVVCKQLGCGKSLHPSPKTRKIYGPGAGRIWLDDVNCSGKEQSLEFCRHRLWGYHDCTHKEDVEVICTDFDV
As to B2, the “internalization of AIM into the cells” value in the data set with CD36 [3] (neutralizing antibody against CD36 loaded simultaneously) is given as “not observed”. Further, the “internalization of AIM into the cells” value in the data set with CD36 [3] (neutralizing antibody against CD36 not loaded) is reported as “had been internalized into the cells”. Also, in the data set with obese AIM-/- mice (setting [7]), the “accumulation of macrophages in the adipose tissues” value is “remarkable accumulation” and the “size of adipocytes in the adipose tissues” value is listed as “remarkably reduced”. Also, in the data set with obese AIM-/- mice (administration of AIM, iv), the “amount of food intake” value is recorded as “No change”. Also, in the data set with obese AIM-/- mice (mouse AIM 1 μg per 1 g body weight, tail vein, twice a week for 4 weeks), the “histology of adipose tissues, observed locally (in a spotty pattern)” value was “shrinkage and lysis of adipocytes”. Also, in the data set on obese AIM-/- mice (setting [8]), the body weight entry is reported as “no significant difference” and the “total weight of the adipose tissue” value is listed as “no significant difference”. Besides, in the data set with obese AIM-/- mice (systemic intravenous administration of purified AIM protein), the “lipolysis in the adipose tissues of the obese mouse” value is given as “induced lipolysis”. Besides, the “functions of AIM after drying and redissolution” value in data set [4] (drying such as lyophilization, redissolution) was “not lost”. Moreover, in data set [4] (pH of about 2 to 3), the “functions of AIM under an acidic condition” value was “does not lose its functions”. Moreover, the “localisation of AIM, immunoelectron microscope” value with 3T3-L1 cells (cells cultured in the presence of AIM for 3 hours) is on record as “accumulated like the dots on the membrane of particles thought to be endosomes”. For the same molecule, the “localisation of AIM, immunoelectron microscope” value in the data set on 3T3-L1 cells (cells cultured in the presence of AIM for 12 hours) was “migrated therefrom into the cytoplasm”. For the same molecule, the “accumulation of AIM on phagosomes, phagolysosomes, or mitochondria” value in the data set on 3T3-L1 cells (immunoelectron microscope) is “No AIM was accumulated”. The “endocytosis of AIM into the cytoplasm, confocal microscope” value in the data set on 3T3-L1 cells (mouse AIM 5 μg/mL, 3 hours, day 4 of culture) is recorded as “endocytosed like dots”.

The values are drawn from patent US8591913B2, “Methods of decreasing adipose tissue” (Toru Miyazaki, priority 2009, dated 2013).
